In the DeepSol protein solubility set:

Experiment: soluble on expression in E. coli; label from the status in PepcDB or PDB records
With “MSLAQIDSLFVTRLYRAALSEHGPKIDPQEMEASCIAIAEDDEAGQDWCEENGYPGYTSYASLTDLPWRFPIFADLVKSLDAHVAAFAQDLELNLDGRDLKLEDLWINILPEGGTHASHIHPHSVISGTTYVSMPDGASALKLEDPRHAMMMAHPPRTKDCRRELRSFVYEAPNVGDVLLWESFIRHEVPMNMAEDERISVSFNYAWAEGHHHHHH” the “soluble on expression in E. coli” value was “soluble”.
In the case of “MSLAQISKYKRVVLKLSGEALAGEKGFGINPVIIKSVAEQVAEVAKMDCEIAVIVGGGNIWRGKTGSDLGMDRGTADYMGMLATVMNALALQDSLEQLDCDTRVLTSIEMKQVAEPYIRRRAIRHLEKKRVVIFAAGIGNPYFSTDTTAALRAAEVEADVILMGKNNVDGVYSADPKVNKDAVKYEHLTHIQMLQEGLQVMDSTASSFCMDNNIPLTVFSIMEEGNIKRAVMGEKIGTLITKEGHHHHHH”, the “soluble on expression in E. coli” value is reported as “soluble”.
In the case of “MSLAQLGRFWHISDLHLDPNYTVSKDPLQVCPSAGSQPVLNAGPWGDYLCDSPWALINSSLYAMKEIEPKPDFILWTGDDTPHVPNESLGEAAVLAIVERLTNLIKEVFPDTKVYAALGNHDFHPKNQFPAQSNRIYNQVAELWRPWLSNESYALFKRGAFYSEKLPGPSRAGRVVVLNTNLYYSNNEQTAGMADPGEQFRWLGDVLSNASRDGEMVYVIGHVPPGFFEKTQNKAWFRESFNEEYLKVIQKHHRVIAGQFFGHHHTDSFRMFYDNTGAPINVMFLTPGVTPWKTTLPGVVDGANNPGIRIFEYDRATLNLKDLVTYFLNLRQANVQETPRWEQEYRLTEAYQVPDASVSSMHTALTRIASEPHILQRYYVYNSVSYNHLTCEDSCRIEHVCAIQHVAFNTYATCLHGLGAKLVPGEGHHHHHH”, the “soluble on expression in E. coli” value is reported as “not soluble”.
For “MSLAQQSYPNKPIRVIVPFAAGSTTDIIARAIADKMGQSMGQSLVVDNRSGASGTIGQQAVATAPADGYTLMVHSSSHTVSPSTFAKLPFDTQADFAGVTPISSLPNALVIAPAKNIRTLQALLAAARARPGSINFASAGQGSATHLNAEKFRLAARIEATNIPFKGSAEAVTEVLSGRVDYYFSPIAPVIGQIRDGQLLALAVGSPKRAAALPEVPTTAEAGVPGSEFNFWIGMMAPAKTPRAIVERLHDEVVKALATPEVKERFLKLGADAWTLRPEQFDAYIKQEIASNAQLVQAAGLQVPQEGHHHHHH”, the “soluble on expression in E. coli” value was “soluble”.
In the case of “MSLARTPNGGAIACSDAAALGKDELFWGALFRGLNRGGSFLQLQIRQIIVTAIEDGRLPLGMKMPSSRDLATVLKVSRNTVVIAYEQLVDQNFLVSRQRSGYFVAGLPKKFATEAPGLAEVTSRGDEHWVDRFAVRPSAHRNIVKPLDWQTHPYPFIFGQFDPSLFPTNDWRESARAALSVPEINNWARDLIDGDDPALIEQLQLQVLPRRGIHARADEIMMTIGAQHALYLIATLFINGQTKVGIEEPGYPDARNIFRMLTPNVVPLSVDSEGVVPDAMFQSCALAYVTSSHQCPTAVTMPLPRRIELLKAAATGDVVVVEDDYEGELMPESATLPPLKSIDRASNVLYVGSLSKALAPGLRLGYVVAPAPVIRELRALRRLMLRHPPLNNQRVAALFIGLGHYRAHLAQVGRVLLERAKLLDQLLPKHLPSCSFSRGPGSTNFWVTCPTSIDATALAEAALEQGVVIEPGAVFSMDETASRHCFRLGFSSIRTDRIEVGIQRLGEVIAQHLKAEGHHHHHH”, the “soluble on expression in E. coli” value is reported as “soluble”.
With “MSLATTREEALHIHRENQGKLESKSKVPVRNARDLSLAYSPGVAEPCKEIFEDVETVYEYTMKGNMVAVVSNGTAVLGLGNIGPEASLPVMEGKAVLFKSFAGVDAFPICLRTTDVDQIVETVKLLEPTFGGVNLEDIAAPSCFEIEERLKKETNIPVFHDDQHGTAIVTLAGLINALKLTGKRMSEIKVVANGAGAAGIAIIKLMQRMGVRDIIMCDSKGAIYDGRPYGMNDMKAEVAKWTNRDKIDGGLGDVLKGADVFIGVSVAGALTKEMIENMNDDPIIFAMANPVPEIMPEEAKAAGAKVIGTGRSDFPNQVNNVLAFPGIFRGALDARATHINEEMKVAAVHAIADLVAEEDLDPDYVIPAPFDPRVAPAVAAAVAKTAMETGVARRKVDPAEVEAKTKKLAIIEEGHHHHHH” the “soluble on expression in E. coli” value was “soluble”.
With “MSLAVTLADVARRAGVSLATASRVLNGSARAVSDEMRARVTAAARELHYVPNAHAQALARAATQTVGVIVHDVSDPYFAEILRGIQRSAADAGRLMIVCNTFRDPQRELEYVHLLQKQRVEAIILAGSGLDDRAYCRSMTERLDSFASMGGRVAVIGRHNIAADAVVPDNVGGARALAHYLLDLGHRSFGIIDGPALLTTSRDRRSGFVQALQAGGITLPPDAIIPGDFTRDGGAQAAIRLLERFPSITAIFALNDVMAIGALAALRERGITVPDQMSIVGFDDIPIAADVTPALTTMRVPMSQLGSEALALALSAEDTLRTIHLPTEMIVRQSTAEGHHHHHH” the “soluble on expression in E. coli” value was “soluble”.
